Numbered stars: 1 amine (or outer) side, 2 acyl side, 3 side chain; on linkers, the order of the positions; unused ones are H or OH. Square brackets hold non-standard residues; d marks the D form. Ends that are not written are not given here. Pqa = 4-oxo-6-(1-piperazinyl)-3(4H)-quinazoline-acetic acid, O=C(Cn1cnc2ccc(N3CCN([*:1])CC3)cc2c1=O)[*:2]; NMeR = CN[C@@H](CCCNC(=N)N)C(=O)O
Tests used:
NPY2R = target: T1, NPY2R (Homo sapiens, UniProt P49146); assay: effect on Y2Receptor family: NPY2R; format: cell-based
T1 sequence (P49146 1-381): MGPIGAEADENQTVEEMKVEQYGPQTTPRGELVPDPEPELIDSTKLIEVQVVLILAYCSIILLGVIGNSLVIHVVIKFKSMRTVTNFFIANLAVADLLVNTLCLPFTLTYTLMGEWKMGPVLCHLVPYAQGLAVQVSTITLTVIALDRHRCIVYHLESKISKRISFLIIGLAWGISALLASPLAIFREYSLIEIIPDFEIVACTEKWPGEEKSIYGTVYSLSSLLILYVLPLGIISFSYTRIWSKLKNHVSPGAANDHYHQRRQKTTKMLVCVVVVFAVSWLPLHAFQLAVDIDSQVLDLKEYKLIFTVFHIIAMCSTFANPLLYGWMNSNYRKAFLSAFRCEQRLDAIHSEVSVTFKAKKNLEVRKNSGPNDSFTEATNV

NPY1R = target: T2, NPY1R (Homo sapiens, UniProt P25929); assay: effect on Y2Receptor family: NPY1R; format: cell-based
T2 sequence (P25929 1-384): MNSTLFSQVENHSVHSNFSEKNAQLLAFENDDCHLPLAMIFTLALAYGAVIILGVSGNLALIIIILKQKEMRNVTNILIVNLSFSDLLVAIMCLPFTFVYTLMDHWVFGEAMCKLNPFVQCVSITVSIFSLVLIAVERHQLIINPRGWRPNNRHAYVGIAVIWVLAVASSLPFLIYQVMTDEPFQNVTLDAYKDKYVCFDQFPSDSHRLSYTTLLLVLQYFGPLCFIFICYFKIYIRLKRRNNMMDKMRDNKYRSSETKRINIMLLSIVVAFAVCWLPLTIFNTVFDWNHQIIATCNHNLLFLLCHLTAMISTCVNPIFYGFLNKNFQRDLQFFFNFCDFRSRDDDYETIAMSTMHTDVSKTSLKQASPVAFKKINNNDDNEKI

NPY5R = target: T3, NPY5R (Homo sapiens, UniProt Q15761); assay: effect on Y2Receptor family: NPY5R; format: cell-based
T3 sequence (Q15761 1-445): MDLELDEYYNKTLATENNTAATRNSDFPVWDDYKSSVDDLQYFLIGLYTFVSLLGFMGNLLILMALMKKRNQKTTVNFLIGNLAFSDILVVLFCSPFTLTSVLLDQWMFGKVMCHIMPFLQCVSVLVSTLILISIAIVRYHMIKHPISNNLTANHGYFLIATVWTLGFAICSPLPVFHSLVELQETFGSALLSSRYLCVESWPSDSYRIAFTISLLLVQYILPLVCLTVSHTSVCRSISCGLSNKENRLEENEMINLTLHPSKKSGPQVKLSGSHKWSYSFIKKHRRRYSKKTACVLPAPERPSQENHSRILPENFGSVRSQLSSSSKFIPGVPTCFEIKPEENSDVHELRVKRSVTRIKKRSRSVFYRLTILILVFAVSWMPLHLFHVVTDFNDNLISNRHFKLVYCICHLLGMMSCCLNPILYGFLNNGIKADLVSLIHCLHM

NPY4R = NPY4R (Homo sapiens, UniProt P50391); assay: effect on Y2Receptor family: NPY4R; format: cell-based
[1] = Dig-peptide serum kinetic (Western blot of digoxigenylated PYY in serum); format: in vivo, mice (strain NRMI)
Method: Serum samples were stored at −80° C.
The determination of the amount of digoxigenylated peptide in the serum at the given time points was difficult compared to the detection of Dig-Cy5 as no direct means to detect the polypeptide in serum samples was available. Therefore, a Western-Blot related assay to detect digoxigenylated peptide in serum was established. In a first step, the serum samples were separated on reducing SDS-PAGE. Because sample preparation included exposure of the serum to high concentrations of SDS and reducing agents, complexed Dig-polypeptide conjugates can become released from the (completely denatured/unfolded) anti-digoxigenin antibody, whereas covalently conjugates remained bound. To mediate the release of the polypeptide from the non-covalent antibody complex and separate the individual components by SDS-PAGE, 2 μl of each serum sample was diluted in 18 μl 20 mM histidine/140 mM NaCl pH 6.0, mixed with 6.7 μl of 4×LDS sample buffer and 3 μl of 10× sample reducing agent (NuPAGE, Invitrogen) for 5 min at 95° C. As a control, 2 μl of serum of an untreated mouse of the same strain was used. Samples were applied to a 4-12% Bis-Tris Gel (NuPAGE, Invitrogen) which was run at 200 V/120 mA for 20 minutes using 1×MES (Invitrogen) as a running buffer. Subsequently, separated polypeptides were blotted onto a PVDF membrane (0.22 μm pore size, Invitrogen) using the XCell Sure Lock® Mini-Cell system (Invitrogen) for 40 min at 25 V/130 mA. Membranes were blocked in 1% skim milk in 1×PBS+1% Tween20 (PBST) for 1 h at RT. Digoxigenylated polypeptides were subsequently detected on the membrane with an anti-digoxigenin antibody. For that, anti-digoxigenin antibody was applied to the membranes in a concentration of 13 μg/ml in 10 ml of 1% skim milk/PBST for 2 h at RT. Membranes were washed for 3×5 min in 1×PBST. Anti-mouse IgG Fab-fragments coupled to POD from the LumiLight^PLUS Western Blotting Kit (Roche) was applied in a 1:25 dilution in 10 ml of 1% skim milk/PBST for 1 h at RT. […] Chemiluminescence was detected with the LumiImager F1 (Roche) with an exposure time of 20 min.

[2] = target: anti-helicar motif amino acid sequence antibody; assay: binding [Kd] of PYY peptides by anti-helicar antibody; settings: PYY peptide bound by anti-helicar antibody

NPY4R, sequence (P50391 whole entry, species assumed): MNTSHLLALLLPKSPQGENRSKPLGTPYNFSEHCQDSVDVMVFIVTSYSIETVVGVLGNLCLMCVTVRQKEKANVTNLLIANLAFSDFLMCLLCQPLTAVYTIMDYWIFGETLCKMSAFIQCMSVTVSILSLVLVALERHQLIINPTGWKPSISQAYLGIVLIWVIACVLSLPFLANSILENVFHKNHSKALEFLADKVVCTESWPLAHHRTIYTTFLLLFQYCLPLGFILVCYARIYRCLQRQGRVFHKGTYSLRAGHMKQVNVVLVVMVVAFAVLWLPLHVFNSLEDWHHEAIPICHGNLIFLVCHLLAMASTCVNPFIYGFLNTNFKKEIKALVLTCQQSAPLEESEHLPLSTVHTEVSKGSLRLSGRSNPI

NPY2R (NPY2R) [nM]	NPY1R (NPY1R)	NPY5R (NPY5R)	NPY4R (NPY4R)	Kd [2] [nM]	Substance	digoxigenylated polypeptide signal in serum ([1]; 5 min after administration)	digoxigenylated polypeptide signal in serum ([1]; later time points up to 24 hrs.)	half-life in the serum ([1]; mouse, in vivo)
1.0	inactive	inactive	inactive	–	Ac-Ile-Lys-Pqa-Arg-His-Tyr-Leu-Asn-Trp-Val-Thr-Arg-Gln-(NMe)-Arg-Try-NH2 * 4 HOAc (Ac-IK[Pqa]RHYLNWVTRQ[NMeR]Y-NH2; also: 4 HOAc salt) [reference compound]	–	–	–
–	–	–	–	–	DIG-PYY: digoxigenylated PYY polypeptide	only in trace amounts	no defined polypeptide band was detectable	very short half-life
6.38	–	inactive	inactive	12	IKPEAPGEDASPEAHLANEVARLHYLNLVTRQRY-NH2 [PYY_helicar]	–	–	–
